Assay results reported in patent publication US20230312724A1 (KADMON, published 2023).
Like-named read-outs stand apart in the source and are kept apart here.

T1: hB7-H4 (soluble human B7-H4, construct not named) (human, UniProt Q7Z7D3 25-259, limits assumed)
T1 construct: also called soluble hB7-H4
T1 sequence: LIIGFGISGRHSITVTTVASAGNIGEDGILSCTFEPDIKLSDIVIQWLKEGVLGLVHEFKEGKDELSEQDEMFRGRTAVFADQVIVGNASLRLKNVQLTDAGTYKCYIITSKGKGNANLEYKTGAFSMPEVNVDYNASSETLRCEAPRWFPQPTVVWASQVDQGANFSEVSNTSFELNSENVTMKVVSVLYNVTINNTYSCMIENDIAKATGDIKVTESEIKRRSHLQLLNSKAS

T2: mB7-H4 (soluble mouse B7-H4, construct not named) (mouse, UniProt Q7TSP5 25-257, limits assumed)
T2 sequence: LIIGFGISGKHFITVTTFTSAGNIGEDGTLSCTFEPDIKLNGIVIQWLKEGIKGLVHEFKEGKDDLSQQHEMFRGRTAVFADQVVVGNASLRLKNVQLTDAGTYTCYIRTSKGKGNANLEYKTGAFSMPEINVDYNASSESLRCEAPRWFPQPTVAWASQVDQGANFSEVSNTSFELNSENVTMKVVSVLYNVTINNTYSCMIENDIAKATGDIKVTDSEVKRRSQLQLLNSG

T3: human B7-H4 expressed on cells (human, UniProt Q7Z7D3 25-282)
T3 construct: Transfected CHO cells or tumor cell lines that carry hB7-H4; also called cellular hB7-H4
T3 sequence: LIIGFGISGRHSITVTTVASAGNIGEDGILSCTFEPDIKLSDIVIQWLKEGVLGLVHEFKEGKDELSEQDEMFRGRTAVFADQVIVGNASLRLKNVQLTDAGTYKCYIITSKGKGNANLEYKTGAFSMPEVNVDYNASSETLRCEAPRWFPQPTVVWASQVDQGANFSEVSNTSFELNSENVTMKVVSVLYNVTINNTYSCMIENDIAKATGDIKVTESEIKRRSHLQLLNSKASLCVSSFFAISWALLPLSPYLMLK

T4: mouse B7-H4 expressed on cells (mouse, UniProt Q7TSP5 25-257)
T4 construct: also called cellular mB7-H4; mB7-H4/CT26
T4 sequence: T2 sequence

T5: mouse B7-H4-his (mouse, UniProt Q7TSP5 25-257)
T5 construct: also called mB7-H4-his; mB7-H4-His; not shown: his tag
T5 sequence: T2 sequence

T6: human B7-H4-his (human, UniProt Q7Z7D3 25-259)
T6 construct: also called hB7-H4-his; hB7-H4 his; not shown: his tag
T6 sequence: T1 sequence

B1: Control antibody 2 (antibody 6H3 described in U.S. Pat. No. 9,574,000) (antibody, V domains shown)
VH: EVQLQQSGPVLVKPGTSVKMSCKASGYTFTDYYMNWVKQSHGKSLEWIGVINPYNGDTTYNQKFKGKATLTVDKSSSTAYMEVNSLTFEDSAVYYCARYPESTYWGQGTLVTVSA
VL: DVVMTQTPLSLPVSLGDQASISCRSSQSLVHINGNTYLHWYLQKPGQSPKVLIYKVSNRFSGVPDRFSGSGSGTDFTLKISRVEAEDLGVYFCSQSTHVPLTFGAGTKLELK
notes: also called (+) control Ab2; Ab2
B2: 1D3/45A2 (antibody, human IgG1, V domains shown)
VH: EVQLLESGGGLVQPGGSLRLSCAASGFTFNTHAMHWVRQAPGKGLEWVSAISGSGGSTYYADSVKGRFTISRDISKNTLYLQMNSLRAEDTAVYYCARLLGRFGEYGMDVWGQGTTVTVSS
VL: DIQMTQSPSSLSASVGDRVTITCRASQNIYTWLAWYQQKPGKAPKLLIYDATNLPTGVPSRFSGSGSGTDFTLTISSLQPEDFATYYCQQSYSTRWTFGGGTKVEIK
notes: 1D3 VH with 45A2 VL
B3: 3F2/49A2 (antibody, human IgG1, V domains shown)
VH: QVQLVQSGAEVKKPGASVKVSCKASGYTFTAQYMYWVRQAPGQGLEWMGRINPTSGNTVYAQKLQGRVTMTRDTSTSTVYMELSSLRSEDTAVYYCARGINWFDPWGQGTLVTVSS
VL: DIQMTQSPSSLSASVGDRVTITCRASQNIDTYVNWYQQKPGKAPKLLIYAASRLHTVPSRFSGSGSGTDFTLTISSLQPEDFATYYCQQSYTSPFTFGGGTKVEIK
notes: 3F2 VH with 49A2 VL
B4: 3F2/3F2 (antibody, human IgG1, V domains shown)
VH: B3 VH
VL: not shown

Experiments:
[1] = biological target: T1, hB7-H4 (soluble human B7-H4, construct …); test: ELISA, hB7-H4
Method: (§1) About 1-2 μg/ml of human or mouse B7-H4-Fc (or his-tagged) was immobilized on ELISA plates (Immuno 2HB, Thermo scientific, cat #3455) at 4° C. overnight. After blocking the plates with 3% PBS+milk, serial diluted antibodies were added to the blocked plates and incubated at RT for 1-1.5 h. After washing the plates with PBS-T (0.05%), horse radish peroxidase (HRP)-conjugated antibody targeting the hFab was added to the plate. Signals were developed by adding 3,3′,5,5′-Tetramethylbenzidine (TMB (followed 1N of H₂SO₄ to stop the reaction. The OD at 450 nm was read by ELISA plate reader (Infinite M1000 from TECAN). GraphPad from Prism was used to plot OD450 vs. antibody concentration curve and to calculate the EC50 values.

[2] = biological target: T1, hB7-H4 (soluble human B7-H4, construct …); test: SPR (Biacore)
[3] = biological target: T2, mB7-H4 (soluble mouse B7-H4, construct …); test: ELISA, mB7-H4
Method: as §1

[4] = biological target: T3, human B7-H4 expressed on cells; test: flow cytometry, SK-BR-3 cells
[5] = biological target: T7, mouse B7-H4-Fc (mouse; human); test: ELISA, coated mB7-H4-Fc
T7 construct: also called mB7-H4-Fc; mB7-H4-hFc
T7 sequence (chain, as listed by the source): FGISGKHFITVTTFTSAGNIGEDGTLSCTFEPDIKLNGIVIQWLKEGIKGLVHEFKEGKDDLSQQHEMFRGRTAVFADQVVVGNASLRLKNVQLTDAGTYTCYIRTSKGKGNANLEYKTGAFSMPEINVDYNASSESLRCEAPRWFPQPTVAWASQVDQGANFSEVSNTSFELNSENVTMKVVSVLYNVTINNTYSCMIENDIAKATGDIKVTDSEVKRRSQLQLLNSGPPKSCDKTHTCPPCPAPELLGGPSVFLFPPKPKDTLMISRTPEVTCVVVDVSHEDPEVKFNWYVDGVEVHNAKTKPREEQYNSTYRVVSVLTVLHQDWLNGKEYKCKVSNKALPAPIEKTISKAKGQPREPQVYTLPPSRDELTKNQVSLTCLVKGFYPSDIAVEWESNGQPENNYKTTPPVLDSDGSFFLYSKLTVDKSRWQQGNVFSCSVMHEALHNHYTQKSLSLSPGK
How it was run: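 Following overnight 4° C coating with about 1-2 μg/ml B7-H4-Fc or his-tagged protein and 3% PBS+milk blocking, antibody dilution series bind 1-1.5 h at RT. HRP anti-hFab plus TMB yields OD450, from which EC50 is derived.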

[6] = biological target: T4, mouse B7-H4 expressed on cells; test: flow cytometry, mB7-H4/CT26 cells
[7] = biological target: T8, IgC domain of human B7-H4-Fc (human); test: ELISA, coated hB7-H4 IgC domain
T8 construct: also called hB7-H4 IgC domain
T8 sequence (chain, as listed by the source): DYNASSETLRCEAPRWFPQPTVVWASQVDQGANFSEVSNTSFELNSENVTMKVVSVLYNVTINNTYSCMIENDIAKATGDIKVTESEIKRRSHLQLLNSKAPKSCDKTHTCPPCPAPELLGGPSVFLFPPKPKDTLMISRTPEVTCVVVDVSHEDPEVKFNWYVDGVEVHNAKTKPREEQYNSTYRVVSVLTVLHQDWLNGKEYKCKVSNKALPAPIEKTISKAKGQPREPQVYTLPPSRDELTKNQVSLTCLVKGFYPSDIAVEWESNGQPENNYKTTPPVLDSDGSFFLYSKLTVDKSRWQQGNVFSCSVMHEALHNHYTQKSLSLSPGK
Method: ELISA experiments were performed to determine binding to hB7-H4-Fc (FIG. 5A), hB7-H4-his (FIG. 5B), mB7-H4-Fc domain (FIG. 5C), hB7-H4 IgV domain (FIG. 5D), and hB7-H4 IgC domain (FIG. 5E). Flow cytrometry experiments were performed to determine binding to CHO cells expressing hB7-H4 (FIG. 5F) or mB7-H4 (FIG. 5G). […] A cross-reactive IgV binding antibody and an IgC binding antibody were used as controls.
as §1

[8] = biological target: T9, IgV domain of human B7-H4-Fc (human); test: ELISA, coated hB7-H4 IgV domain
T9 construct: also called hB7-H4 IgV domain
T9 sequence (chain, as listed by the source): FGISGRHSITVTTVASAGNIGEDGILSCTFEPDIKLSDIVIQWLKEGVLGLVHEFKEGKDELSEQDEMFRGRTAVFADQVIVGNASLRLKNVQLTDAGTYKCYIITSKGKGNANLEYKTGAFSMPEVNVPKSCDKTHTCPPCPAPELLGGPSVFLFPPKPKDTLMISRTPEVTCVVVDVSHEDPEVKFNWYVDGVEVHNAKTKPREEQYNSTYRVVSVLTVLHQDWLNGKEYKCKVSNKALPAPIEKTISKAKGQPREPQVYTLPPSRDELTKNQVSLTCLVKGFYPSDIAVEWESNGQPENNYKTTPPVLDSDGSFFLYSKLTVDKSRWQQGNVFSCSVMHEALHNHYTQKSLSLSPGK

[9] = biological target: T10, IgV domain of mouse B7-H4-Fc (mouse; human); test: ELISA, coated mB7-H4 IgV domain
T10 construct: also called mB7-H4 IgV domain
T10 sequence (chain, as listed by the source): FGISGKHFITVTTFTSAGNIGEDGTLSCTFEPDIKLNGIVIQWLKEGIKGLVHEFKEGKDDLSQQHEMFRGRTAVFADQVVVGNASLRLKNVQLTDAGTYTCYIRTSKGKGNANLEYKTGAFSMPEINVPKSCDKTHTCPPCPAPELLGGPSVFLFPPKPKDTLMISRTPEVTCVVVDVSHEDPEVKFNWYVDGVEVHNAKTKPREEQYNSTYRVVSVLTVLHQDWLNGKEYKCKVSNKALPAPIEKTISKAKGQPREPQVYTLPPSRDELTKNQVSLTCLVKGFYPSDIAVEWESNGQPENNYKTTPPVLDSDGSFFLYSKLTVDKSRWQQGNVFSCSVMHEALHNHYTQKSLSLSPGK

[10] = biological target: T8, IgC domain of human B7-H4-Fc; test: ELISA, coated hB7-H4 IgC domain; remark: listed apart in the source
[11] = biological target: T2, mB7-H4 (soluble mouse B7-H4, construct …); test: SPR (Biacore); values equal to Table 11
[12] = biological target: T1, hB7-H4 (soluble human B7-H4, construct …); test: ELISA, hB7-H4; remark: listed apart in the source
Method: as §1

[13] = biological target: T1, hB7-H4 (soluble human B7-H4, construct …); test: SPR (Biacore); remark: listed apart in the source
Method: (§2) Surface plasmon resonance experiments were performed using a Biacore T200 instrument equipped with CM5 sensor chips. The system was equilibrated in running buffer HBS-EP pH 7.4. The ligands were immobilized using amine-coupling chemistry. The surfaces of flow cells one through four were activated for 5 min using an amine coupling kit at a flow rate of […]. The ligands (human B7-H4-Fc, human B7-H4-hism and mouse B7-H4-Fc; at a concentration of 5 μg/ml in 10 mM sodium acetate, pH 5.0) were immobilized at a density of 50-100 RU on flow cell 2, 3, 4 respectively. Flow cell 1 was left blank to serve as a reference surface. All flow cell surfaces were blocked with a 5 min injection of 1 M ethanolamine, pH 8.0. To collect kinetic binding data, the respective analyte (diluted in 1×HBS-EP buffer, pH 7.4) was injected over the four flow cells at concentrations of 100 nM to 0.1 nM at a flow rate of […] and at a temperature of 25° C. The protein complex was allowed to associate and dissociate for 180 seconds and 1000 or 1200 seconds, respectively. The surfaces were regenerated with a 30 second injection of 1.5 M NaCl/0.05 M NaOH. The data were fit to a simple 1:1 interaction model using the Langmuir fit option available within the Biaevaluaton software

[14] = biological target: T2, mB7-H4 (soluble mouse B7-H4, construct …); test: ELISA and SPR (Biacore)
Method: as §1, §2

[15] = biological target: T3, human B7-H4 expressed on cells; test: flow cytometry, SK-BR-3 cells; remark: listed apart in the source
Method: (§3) Cells were harvested, washed once, and then re-suspended to the concentration of 1×10⁶ cells/ml in ice cold FACS Buffer. 25 μl of cell suspension was added to each well of a 96-well round-bottom microliter plate. Serially diluted antibodies or fusion proteins were added to each well and incubated for 1 hour at 4° C. Cells were washed three times by centrifugation at 1500 rpm for 5 minutes, and then stained with secondary antibody (1:200 dilution) for 30 min at 4° C. in the dark. Cells were washed once, re-suspended in 100 μl PBS buffer and then analyzed using Guava Flow Cytometry EasyCyte system.

[16] = biological target: T5, mouse B7-H4-his; test: ELISA, coated mB7-H4-his
Method: as §1

[17] = biological target: T10, IgV domain of mouse B7-H4-Fc; test: ELISA, coated mB7-H4 IgV domain; remark: listed apart in the source
Method: as §1

[18] = biological target: T4, mouse B7-H4 expressed on cells; test: flow cytometry, CHO cells expressing mB7-H4
[19] = biological target: T7, mouse B7-H4-Fc; test: ELISA, coated mB7-H4-Fc (title on the sheet: Binding to mB7-H7-Fc)
Method: as §1

[20] = biological target: T11, IgC domain of mouse B7-H4-Fc (mouse; human); test: ELISA, coated mB7-H4 IgC domain (title on the sheet: IgC domain of mB7H4)
T11 construct: also called mB7-H4 IgC domain
T11 sequence (chain, as listed by the source): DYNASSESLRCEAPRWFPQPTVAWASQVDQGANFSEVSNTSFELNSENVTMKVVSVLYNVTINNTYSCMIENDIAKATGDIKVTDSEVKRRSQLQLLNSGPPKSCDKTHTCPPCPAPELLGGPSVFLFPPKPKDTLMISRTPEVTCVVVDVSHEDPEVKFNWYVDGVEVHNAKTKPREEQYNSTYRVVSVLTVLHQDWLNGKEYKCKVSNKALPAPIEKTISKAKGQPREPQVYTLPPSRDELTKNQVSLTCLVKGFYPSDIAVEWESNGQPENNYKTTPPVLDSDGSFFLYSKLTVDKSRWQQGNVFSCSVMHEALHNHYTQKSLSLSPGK
Method: as §1

[21] = biological target: T8, IgC domain of human B7-H4-Fc; test: ELISA, coated hB7-H4 IgC domain (title on the sheet: IgC domain of hB7H4)
Method: as §1

[22] = biological target: T12, human B7-H4-Fc (human); test: SPR (Biacore)
T12 construct: also called hB7-H4-Fc; hB7-H4 Fc
T12 sequence (chain, as listed by the source): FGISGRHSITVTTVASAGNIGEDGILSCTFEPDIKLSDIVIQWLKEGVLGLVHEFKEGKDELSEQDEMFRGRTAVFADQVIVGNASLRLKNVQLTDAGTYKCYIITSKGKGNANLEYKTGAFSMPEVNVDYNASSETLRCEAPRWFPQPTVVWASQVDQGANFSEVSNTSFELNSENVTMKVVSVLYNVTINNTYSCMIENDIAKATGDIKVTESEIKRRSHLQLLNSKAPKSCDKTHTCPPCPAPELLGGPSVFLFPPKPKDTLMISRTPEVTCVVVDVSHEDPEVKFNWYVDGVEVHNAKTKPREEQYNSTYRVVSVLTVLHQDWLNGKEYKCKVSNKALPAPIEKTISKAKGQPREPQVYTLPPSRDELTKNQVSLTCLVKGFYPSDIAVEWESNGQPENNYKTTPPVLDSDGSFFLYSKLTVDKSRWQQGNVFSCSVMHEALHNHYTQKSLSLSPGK
Method: as §2
(§4) The kinetics for binding of the different antibodies to their targets were examined using Biacore analysis.

[23] = biological target: T6, human B7-H4-his; test: SPR (Biacore)
Method: as §2, §4

[24] = biological target: T7, mouse B7-H4-Fc; test: ELISA, coated mB7-H4-Fc; remark: listed apart in the source
Method: (§5) ELISA experiments were performed to determine binding to hB7-H4-Fc (FIG. 3A), hB7-H4-his (FIG. 3B), mB7-H4-Fc (FIG. 3C), and hB7-H4 IgV domain (FIG. 3D). Flow cytometry experiments were performed to determine binding to CHO cells expressing hB7-H4 (FIG. 3E) or mB7-H4 (FIG. 3F).
as §1

[25] = biological target: T4, mouse B7-H4 expressed on cells; test: flow cytometry, CHO cells expressing mB7-H4; remark: listed apart in the source
Method: as §5, §3

Row | Binder | EC50 [12] | Kd [13] | binding result [14] | EC50 [15] | binding result [16] | binding result [17] | binding result [20] | binding result [21] | also measured
1 | B1 |  |  |  |  |  |  |  |  | EC50 [1]: 0.222 nM; Kd [2]: 0.626 nM; EC50 [3]: 0.289 nM; EC50 [4]: 3.37 nM; binding result [5]: binds; EC50 [6]: 18.4 nM; EC50 (read off the curve) [7]: ~0.01 µg/mL; binding result [8]: no binding (tested: log 1 nM (10 nM)); binding result [9]: no binding (tested: log 1 nM (10 nM)); EC50 (read off the curve) [10]: ~0.2 nM; Kd [11]: 0.626 nM
2 | B2 | 0.041 nM | 0.317 nM | no binding | 52.1 nM | no binding (tested: axis value -8 (labelled log nM)) | no binding (tested: axis value -8 (labelled log nM)) | no binding (tested: axis value -8 (labelled log nM)) | no binding (tested: axis value -8 (labelled log nM)) | binding result [18]: no binding (tested: log 2 nM (100 nM)); binding result [19]: no binding (tested: axis value -8 (log scale labelled nM))
3 | B3 | 0.056 nM | 0.015 nM |  | 0.79 nM |  | no binding (tested: axis value -8 (labelled log nM)) | no binding (tested: axis value -8 (labelled log nM)) | no binding (tested: axis value -8 (labelled log nM)) | EC50 (read off the curve) [18]: ~8 nM
4 | B4 | 0.048 nM | 0.0819 nM | no binding | 0.84 nM | no binding (tested: axis value -8 (labelled log nM)) | no binding (tested: axis value -8 (labelled log nM)) | no binding (tested: axis value -8 (labelled log nM)) |  | Kd [22]: 0.0951 nM; Kd [23]: 0.0849 nM; binding result [24]: no binding (tested: axis value -8 (log scale labelled nM)); binding result [25]: no binding (tested: axis value -7 (log scale labelled nM))
